Biological target: LDL receptor (human), on cells (human) (UniProt P01130)
Assay: cell-based or functional assay

For “LDL fraction of HCV-infected serum (HCV-LDL)”, the Endocytosis of 5 µg DiI-labeled fraction, mean fluorescence (log scale) (mean fluorescence (log scale)) was 9.98.

In the case of “HDL fraction of HCV-infected serum (HCV-HDL)”, the Endocytosis of 5 µg DiI-labeled fraction, mean fluorescence (log scale) (mean fluorescence (log scale)) is reported as 1.88.

With “VLDL fraction of HCV-infected serum (HCV-VLDL)” the Endocytosis of 5 µg DiI-labeled fraction, mean fluorescence (log scale) (mean fluorescence (log scale)) was 8.49.

For “low density lipoprotein (LDL) from normal serum, P04114 1-4563”, the Uptake of LDL by cultured cells, mean fluorescence (G4, lipoprotein deficient medium, DiI-LDL) (mean fluorescence) was 16, the Uptake of LDL by cultured cells, mean fluorescence (G4, routine medium, DiI-LDL) (mean fluorescence) was 4 and the Uptake of LDL by cultured cells, mean fluorescence (HepG2, routine medium, DiI-LDL) (mean fluorescence) was 16.

In the case of “high density lipoprotein (HDL) from normal serum”, the competitive inhibition of endocytosis of HCV by HepG2, G4 and E11 cells is reported as > 200 µg/mL.

Reference: patent publication US20110229482A1, “Method of inhibiting infection by HCV, other flaviviridae viruses, and any other virus that complexes to low density lipoprotein or to very low density lipoprotein in blood by preventing viral entry into a cell” (priority 2000, published 2011)
